Assay results from US20190352341 (published 2019).
Read-outs that look alike come from different tables or passages of the source. One block for each binder: values may come before it. Square brackets hold non-standard residues; d marks the D form. Ends that are not written are not given here. Met(O) = CS(=O)CC[C@H](N)C(=O)O; pS = N[C@@H](COP(=O)(O)O)C(=O)O

Legend:
HSC70 [1] = target: T1, HSC70 (bovine, UniProt P19120); assay: SPR, 25C pH 7.4
HSC70 [2] = target: T1, HSC70; assay: SPR, 25C pH 7.4; remark: listed apart in the source

T1 sequence (P19120 2-650): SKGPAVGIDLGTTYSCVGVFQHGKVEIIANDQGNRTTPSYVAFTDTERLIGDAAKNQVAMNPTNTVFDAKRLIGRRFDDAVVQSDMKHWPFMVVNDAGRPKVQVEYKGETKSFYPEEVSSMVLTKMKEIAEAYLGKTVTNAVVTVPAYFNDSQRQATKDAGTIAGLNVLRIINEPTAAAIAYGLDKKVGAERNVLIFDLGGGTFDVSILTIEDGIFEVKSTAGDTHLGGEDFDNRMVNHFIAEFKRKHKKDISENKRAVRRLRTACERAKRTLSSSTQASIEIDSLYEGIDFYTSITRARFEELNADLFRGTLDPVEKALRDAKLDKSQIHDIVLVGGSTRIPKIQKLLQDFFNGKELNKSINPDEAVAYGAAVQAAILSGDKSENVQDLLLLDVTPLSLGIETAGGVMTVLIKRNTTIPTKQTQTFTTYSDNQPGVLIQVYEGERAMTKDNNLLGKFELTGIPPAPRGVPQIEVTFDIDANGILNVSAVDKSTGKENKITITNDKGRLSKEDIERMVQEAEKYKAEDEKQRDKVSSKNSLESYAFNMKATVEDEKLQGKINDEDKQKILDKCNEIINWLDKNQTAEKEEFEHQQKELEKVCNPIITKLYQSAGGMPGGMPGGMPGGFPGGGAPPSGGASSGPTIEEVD

Kd (HSC70 [1]): 1.91 µM
B1: P140(MO) (peptide)
chain: RIH[Met(O)]VYSKR[pS]GKPRGYAFIEY

Kd (HSC70 [2]): 6.94 µM
B2: P140 (peptide)
chain: RIHMVYSKR[pS]GKPRGYAFIEY
